Measured values published in patent US20150004174A1.
Blank lines part the entries; values can stand above or below the binder they belong to.

Assays:
[1] = target: cynomolgus monkey PCSK9, V5-6xHis tagged (cynomolgus monkey); assay: BIAcore SPR, antibody amine-coupled to CM5 chip, PCSK9 as analyte, pH 7.4
[2] = target: cynomolgus monkey PCSK9, V5-6xHis tagged (cynomolgus monkey); assay: KinExA solution equilibrium
[3] = target: cynomolgus monkey PCSK9, V5-6xHis tagged (cynomolgus monkey); assay: BIAcore solution equilibrium binding assay, free PCSK9 measured on immobilized 21B12

- Kd [1]: 870 pM
- Kd [2]: 16 pM
B1: 16F12 human IgG4 (antibody, V domains shown)
VH: QVHLVESGGGVVQPGRSLRLSCAASGFTFNSFGMHWVRQAPGKGLEWVALIWSDGSDEYYADSVKGRFTISRDNSKNTLYLQMNSLRAEDTAVYYCARAIAALYYYYGMDVWGQGTTVTVSS
VL: QSVLTQPPSVSAAPGQKVTISCSGSSSNIGNNFVSWYQQLPGTAPKLLIYDYNKRPSGIPDRFSGSKSGTSATLGITGLQTGDEADYYCGTWDSSLSAYVFGTGTRVTVLQ

- Kd [1]: 360 pM
- Kd [3]: 11 pM
B2: 21B12 human IgG4 (from hybridoma) (antibody, V domains shown)
VH: QVQLVQSGAEVKKPGASVKVSCKASGYTLTSYGISWVRQAPGQGLEWMGWVSFYNGNTNYAQKLQGRGTMTTDPSTSTAYMELRSLRSDDTAVYYCARGYGMDVWGQGTTVTVSS
VL: QSALTQPASVSGSPGQSITISCTGTSSDVGGYNSVSWYQQHPGKAPKLMIYEVSNRPSGVSNRFSGSKSGNTASLTISGLQAEDEADYYCNSYTSTSMVFGGGTKLTVLQ
